Article PMC11849937, “Atractylenolide I inhibits angiogenesis and reverses sunitinib resistance in clear cell renal cell carcinoma through ATP6V0D2-mediated autophagic degradation of EPAS1/HIF2α” (Autophagy, 2024)

Target: T1, His-VPS41 (recombinant, bacterial) (UniProt P49754 1-854)
T1 construct: VPS41; The only His-VPS41 plasmid that the methods name is in the vector pGMLV; source: BL21 (Rosetta) bacterial cells, purified (His beads)
T1 sequence (looked up): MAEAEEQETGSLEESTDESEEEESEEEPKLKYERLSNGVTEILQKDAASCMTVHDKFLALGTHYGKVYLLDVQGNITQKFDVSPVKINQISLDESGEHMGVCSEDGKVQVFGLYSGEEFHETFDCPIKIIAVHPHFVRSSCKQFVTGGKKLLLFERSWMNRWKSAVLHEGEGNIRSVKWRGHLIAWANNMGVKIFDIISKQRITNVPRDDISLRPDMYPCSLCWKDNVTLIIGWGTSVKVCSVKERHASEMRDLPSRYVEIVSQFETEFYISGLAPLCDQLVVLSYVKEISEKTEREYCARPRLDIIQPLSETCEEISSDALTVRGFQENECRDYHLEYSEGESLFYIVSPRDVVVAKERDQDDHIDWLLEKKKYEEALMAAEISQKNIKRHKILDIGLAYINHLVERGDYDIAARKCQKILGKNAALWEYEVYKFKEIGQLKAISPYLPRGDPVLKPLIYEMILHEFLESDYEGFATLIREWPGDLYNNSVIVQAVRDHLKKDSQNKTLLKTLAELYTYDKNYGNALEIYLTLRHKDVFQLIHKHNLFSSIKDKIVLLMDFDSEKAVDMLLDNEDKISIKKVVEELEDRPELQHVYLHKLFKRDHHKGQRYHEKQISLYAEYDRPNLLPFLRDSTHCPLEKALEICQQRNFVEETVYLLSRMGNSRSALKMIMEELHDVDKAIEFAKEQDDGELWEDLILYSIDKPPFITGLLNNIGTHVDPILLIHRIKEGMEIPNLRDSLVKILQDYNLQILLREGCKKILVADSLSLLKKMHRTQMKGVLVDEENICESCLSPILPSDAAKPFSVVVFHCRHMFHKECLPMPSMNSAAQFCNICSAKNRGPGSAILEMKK
Assay: pull-down; GST-tagged protein (2.5 ug) immobilised on glutathione-Sepharose beads, incubated with His-RAB7, His-VPS41 or both in affinity-isolation buffer with PMSF; western blot
Settings: both partners purified

B1: GST-tagged ATP6V0D2 (natural protein)
chain: not shown
notes: ATP6V0D2, ATPase H+ transporting V0 subunit d2; Construct bought from Tsingke Biotechnology; also called GST-ATP6V0D2; source: BL21 (Rosetta) bacterial cells, purified (glutathione-Sepharose beads)
B1: binds.
